Target: T1, murine CD300LB-Fc (mouse)
T1 construct: mouse IgG2a-Fc fusion (R&D Systems); the entry is the whole fusion chain; also called mCD300LB; Mouse CD300LB-Fc
T1 chain: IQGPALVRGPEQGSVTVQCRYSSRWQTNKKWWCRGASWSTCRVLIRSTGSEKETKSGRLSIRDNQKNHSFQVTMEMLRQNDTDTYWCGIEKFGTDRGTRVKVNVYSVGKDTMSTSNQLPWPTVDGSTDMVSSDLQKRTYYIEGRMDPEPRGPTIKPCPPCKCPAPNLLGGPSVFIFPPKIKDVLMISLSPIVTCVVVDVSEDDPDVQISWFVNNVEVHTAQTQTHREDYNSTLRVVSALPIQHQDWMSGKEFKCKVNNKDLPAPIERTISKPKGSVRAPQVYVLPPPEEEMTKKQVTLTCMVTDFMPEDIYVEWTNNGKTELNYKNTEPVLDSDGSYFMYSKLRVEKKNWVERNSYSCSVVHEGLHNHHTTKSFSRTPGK
Assay: SPR (Carterra LSA), antibody immobilised, Fc fusion at 300 or 600 nM
Protocol: Binding of mouse anti-CD300LB IgG1 antibodies of the present disclosure to human and murine CD300 orthologs were evaluated by surface plasmon resonance (SPR) using a Carterra LSA instrument (Carterra, Salt Lake City, UT). […] A HC200M sensor chip (Carterra) was activated using the single channel flow cell with a 7-minute injection of a 1:1:1 mixture of 100 mM MES pH 5.5, 100 mM sulfo-NHS, 400 mM EDC (all reconstituted in MES pH 5.5; 100 μL of each mixed in vial immediately before running assay). After switching to the multi-channel array flow cell, the antibodies were injected over the activated chip in a 96-spot array for 10 minutes. The remaining unconjugated active groups on the chip were then blocked by injecting 1M Ethanolamine pH 8.5 (Carterra) for 7 minutes using the single channel flow cell. After priming with running buffer (HBS-TE, Carterra) with 0.5 mg/ml BSA (Sigma), the immobilized anti-CD300LB antibodies were tested for their ability to bind human and mouse recombinant CD300LB extracellular domains. Human CD300 family members and mouse CD300A were hIgG1-Fc fusions, while mouse CD300LB, mouse CD300C, mouse CD300D, and mouse CD300E were mouse IgG2a-Fc fusions (R&D Systems). Binding was assessed by injecting each analyte over the entire antibody array using the single channel flow cell. CD300 analytes were diluted to 300 nM or 600 nM in running buffer and injected in series without regeneration. Two or three buffer blanks were run between each mouse or human ortholog, respectively. Data were processed and analyzed using NextGenKIT high-throughput kinetics analysis software (Carterra).
Results of anti-CD300LB antibody binding to human CD300 family members is provided below in Table 7.

B1: anti-CD300LB antibody CD-01 (antibody, V domains shown)
VH: RVQLQQSGAELVRPGASVTLSCKASGFTFTDFEMHWVKKTPVHGLEWIGAIDPESGNTAYNQKFRGKATLTADKSSSTAYMELRYLTSEDSAVYYCTPLISGADYWGQGTTLTVSS
VL: DVVMTQSPLSLPVSLGDQASISCRSSQSLVHSDGNTYLYWYLQKPGQSPKLLIYKVSNRFSGVPDRFSGSGSGTDFTFKISRVGAEDLGVYFCSQSTHVPWTFGGGTKLEII
SPR binding (control subtracted): 29

— patent publication US20240254227A1 (Alector, published 2024)
